Article PMC11845725

Assays:
[1] = target: TGM6-D3 R95A (H. polygyrus); test: ITC; binder in the syringe, target in the sample cell, concentrations as in the tables; 25 °C; 25 mM HEPES, 150 mM NaCl, 0.05% NaN3, pH 7.4; fit to a simple 1:1 binding model
[2] = target: TGM6-D3 P94K R95N (KN) (H. polygyrus); test: as above
[3] = target: TGM6-D3 R38A (H. polygyrus); test: as above
[4] = target: H. polygyrus TGF-β Mimic 6 (TGM6) (H. polygyrus); test: as above
[5] = target: TGM6-D3 Y80A (H. polygyrus); test: as above
[6] = target: TGM6-D3 I78A (H. polygyrus); test: as above
[7] = target: TGM6-D3 Y93A (H. polygyrus); test: as above
[8] = target: TGM6-D3 Y80F (H. polygyrus); test: as above
[9] = target: TGM6 domain 3 (TGM6-D3) (H. polygyrus); test: as above
[10] = target: TGM6 domain 3 (TGM6-D3) (H. polygyrus); test: ITC; competition: 150 μM TGFBR2 in the syringe into 15 μM TGM6-D3 in the cell with 0.0 or 6.0 μM TGM1-D3; 25 °C; ITC buffer pH 7.4; global fit to a simple competitive binding model; constants are for binding in the absence of competitor
[11] = target: TGM1 domain 3 (TGM1-D3) (H. polygyrus); test: ITC; binder in the syringe, target in the sample cell, concentrations as in the tables; 35 °C; 25 mM HEPES, 150 mM NaCl, 0.05% NaN3, pH 7.4; fit to a simple 1:1 binding model
[12] = target: TGM1-D3 K254P N255R (PR) (H. polygyrus); test: as above
[13] = target: TGM6-D3 R82S (H. polygyrus); test: as above
[14] = target: TGM6-D3 R82A (H. polygyrus); test: as above
[15] = target: TGM6-D3 Q81K R82S R83G G84T (KSGT) (H. polygyrus); test: as above
[16] = target: TGM1-D3 K241Q S242R G243R T244G (QRRG) (H. polygyrus); test: as above
[17] = target: TGM6 domain 3 (TGM6-D3) (H. polygyrus); test: as above
[18] = target: TGM1-D3 S242R (H. polygyrus); test: as above
[19] = target: TGFBR2 extracellular domain (TGF-β type II receptor) (UniProt P37173); test: ITC; TGM6-D3, TGM1-D3 and TGFBR2 variants, simple binding model, 1–2 replicates per variant; syringe and cell proteins in Supplementary Table 6; 25 mM HEPES, 150 mM NaCl, 0.05% NaN3, pH 7.4
[20] = target: TGFBR2 extracellular domain (TGF-β type II receptor) (UniProt P37173)
TGFBR2 I76A (human) = test: ITC; binder in the syringe, target in the sample cell, concentrations as in the tables; 25 °C; 25 mM HEPES, 150 mM NaCl, 0.05% NaN3, pH 7.4; fit to a simple 1:1 binding model
[21] = target: TGF-β type II receptor extracellular domain (TGFBR2) (human); test: as above
TGFBR2 D141A (human) = test: as above
TGFBR2 E142A (human) = test: ITC; binder in the syringe, target in the sample cell, concentrations as in the tables; 35 °C; 25 mM HEPES, 150 mM NaCl, 0.05% NaN3, pH 7.4; fit to a simple 1:1 binding model
TGFBR2 D55A (human) = test: as above
[22] = target: TGM1 domains 4 and 5 (TGM1-D45) (H. polygyrus); test: as above

Substance: TGF-β type II receptor extracellular domain (TGFBR2)
- Kd [1]: 3820 nM
- stoichiometry N [1]: 1 sites
- Kd [2]: 270 nM
- stoichiometry N [2]: 0.9 sites
- Kd [3]: 8030 nM
- stoichiometry N [3]: 0.85 sites
- Kd [4]: 222 nM
- stoichiometry N [4]: 1.16 sites
- Kd [5]: 48400 nM
- stoichiometry N [5]: 0.33 sites
- Kd [6]: 5560 nM
- stoichiometry N [6]: 0.71 sites
- Kd [7]: 39000 nM
- stoichiometry N [7]: 0.17 sites
- Kd [8]: 1250 nM
- stoichiometry N [8]: 0.67 sites
- Kd [9]: 360 nM
- stoichiometry N [9]: 0.87 sites
- Kd [10]: 189 nM
- Kd [11]: 1530 nM
- stoichiometry N [11]: 0.72 sites
- Kd [12]: 2620 nM
- stoichiometry N [12]: 0.91 sites
- Kd [13]: 3090 nM
- stoichiometry N [13]: 1.12 sites
- Kd [14]: 4230 nM
- stoichiometry N [14]: 0.93 sites
- Kd [15]: 4490 nM
- stoichiometry N [15]: 0.82 sites
- Kd [16]: 170 nM
- stoichiometry N [16]: 1.1 sites
- Kd [17]: 437 nM
- stoichiometry N [17]: 1.01 sites
- Kd [18]: 380 nM
- stoichiometry N [18]: 0.7 sites

Substance: TGM1-D3 S242R (domain or fragment)
- fold gain of binding affinity against wild type [19]: 4 fold

Substance: TGM6 (TGF-β mimic 6), full-length (natural protein)
- IC50 of inhibition of the TGF-β1- or TGM1-stimulated CAGA luciferase reporter in NIH-3T3 fibroblasts by increasing concentrations of TGM6 [20]: 0.05 nM
- IC50 of inhibition of the TGF-β1- or TGM1-stimulated reporter in MFB-F11 fibroblasts by increasing concentrations of TGM6 [20]: 0.2 nM

Substance: TGM6 domain 3 (TGM6-D3) (domain or fragment)
- Kd (TGFBR2 I76A (human)): 7350 nM
- stoichiometry N (TGFBR2 I76A (human)): 0.69 sites
- Kd [21]: 350 nM
- stoichiometry N [21]: 0.68 sites
- Kd (TGFBR2 D141A (human)): 940 nM
- stoichiometry N (TGFBR2 D141A (human)): 0.75 sites
- Kd (TGFBR2 E142A (human)): 3170 nM
- stoichiometry N (TGFBR2 E142A (human)): 0.56 sites
- Kd (TGFBR2 D55A (human)): 2250 nM
- stoichiometry N (TGFBR2 D55A (human)): 0.52 sites

Substance: TGM6-D3 I78A (domain or fragment)
- fold decrease in binding affinity against wild type [19]: 15.4 fold

Substance: TGM6-D3 R38A (domain or fragment)
- fold decrease in binding affinity against wild type [19]: 22 fold

Substance: TGM6-D3 R82A (domain or fragment)
- fold decrease in binding affinity against wild type [19]: 11 to 12 fold

Substance: TGM6-D3 R82S (domain or fragment)
- fold loss of binding affinity against wild type [19]: 8.6 fold

Substance: TGM6-D3 R95A (domain or fragment)
- fold decrease in binding affinity against wild type [19]: 11.6 fold

Substance: TGM6-D3 Y80A (domain or fragment)
- fold decrease in binding affinity against wild type [19]: 134 fold

Substance: TGM6-D3 Y80F (domain or fragment)
- fold decrease in binding affinity against wild type [19]: 3.5 fold

Substance: TGM6-D3 Y93A (domain or fragment)
- fold decrease in binding affinity against wild type [19]: 108 fold

Substance: mouse CD44 (mCD44) (receptor)
- Kd [22]: 126 nM
- stoichiometry N [22]: 0.82 sites
